B1: NKp30-Ig fusion protein (Fc fusion, human, UniProt O14931 19-135, looked up, not shown: a dimerising Fc or GST)
chain: LWVSQPPEIRTLEGSSAFLPCSFNASQGRLAIGSVTWFRDEVVPGKEVRNGTPEFRGRLAPLASSRFLHDHQAELHIRDVRGHDASIYVCRVEVLGLGVGTGNGTRLVVEKEHPQLG
B2: CD99-Ig fusion protein (Fc fusion)
chain: DGGFDLSDALPDNENKKPTAIPKKPSAGDDFDLGDAVVDGENDDPRPPNPPKPMPNPNPNHPSSSGSFSDADLADGVSGGEGKGGSDGGGSHRKEGEEAD

One test deals with rosettes of HA from X31 (A/Aichi/2/68xpr/8/34) H3N2 influenza virus (influenza A virus X31 …, UniProt P03437 17-520). As to the kind of experiment: ELISA, plates coated with HA rosettes. On the technique in general: In an ELISA, binding on a coated surface is turned into a signal by an enzyme label.
With B1, the binding result is given as “no binding”.

A further test has as its target HA of influenza virus X-127 (H1N1) on infected cells (influenza A virus X-127 (H1N1)).
Test: not given
As for “NKp30-Ig fusion protein (from UniProt O14931 19-135) (Fc fusion)”, the MFI was 6.

In turn, “NKp46-Ig fusion protein (from UniProt O76036 22-254) (Fc fusion)” gave an MFI of 107.

With “NKp46D1-Ig fusion protein (membrane distal domain of NKp46 fused to Fc of human IgG1) (from UniProt O76036 22-120) (Fc fusion)”, the MFI is 5.

“NKp46D2-Ig fusion protein produced in COS cells (membrane proximal domain of NKp46 fused to Fc of human IgG1) (from UniProt O76036 121-254) (Fc fusion)”: the MFI turned out to be 160.

Consider “NKp44-Ig fusion protein (from UniProt O95944 22-190) (Fc fusion)”, for which the MFI was 220.

As to B2, the MFI worked out at 1.

(Values after patent publication US20070203054A1 (YISSUM RESEARCH DEVELOPMENT COMPANY OF THE HEBREW …, published 2007).)
